In patent US20200338203A1 (Bicycle, published 2020) one finds Ki data, which are given here for 46 molecules.

The term Ki denotes a dissociation constant, usually derived from enzyme kinetics or from competition with a known ligand.

Numbered stars: 1 amine (or outer) side, 2 acyl side, 3 side chain; on linkers, the order of the positions; unused ones are H or OH. Bridge positions count the residues as written; N and C are the ends. Square brackets hold non-standard residues; d marks the D form. Ends that are not written are not given here. Dip = N[C@H](C(=O)O)C(c1ccccc1)c1ccccc1; 1Nal = N[C@@H](Cc1cccc2ccccc12)C(=O)O; TBMB = c1c(C[*:1])cc(C[*:3])cc1C[*:2]; Ala(cPr) = N[C@@H](CC1CC1)C(=O)O; hArg = N=C(N)NCCCC[C@H](N)C(=O)O; Gly(cPr) = N[C@H](C(=O)O)C1CC1; Cba = N[C@@H](CC1CCC1)C(=O)O; Tle = CC(C)(C)[C@H](N)C(=O)O; Aib = CC(C)(N)C(=O)O; Sar = CNCC(=O)O

T1 sequence (P29317 24-537): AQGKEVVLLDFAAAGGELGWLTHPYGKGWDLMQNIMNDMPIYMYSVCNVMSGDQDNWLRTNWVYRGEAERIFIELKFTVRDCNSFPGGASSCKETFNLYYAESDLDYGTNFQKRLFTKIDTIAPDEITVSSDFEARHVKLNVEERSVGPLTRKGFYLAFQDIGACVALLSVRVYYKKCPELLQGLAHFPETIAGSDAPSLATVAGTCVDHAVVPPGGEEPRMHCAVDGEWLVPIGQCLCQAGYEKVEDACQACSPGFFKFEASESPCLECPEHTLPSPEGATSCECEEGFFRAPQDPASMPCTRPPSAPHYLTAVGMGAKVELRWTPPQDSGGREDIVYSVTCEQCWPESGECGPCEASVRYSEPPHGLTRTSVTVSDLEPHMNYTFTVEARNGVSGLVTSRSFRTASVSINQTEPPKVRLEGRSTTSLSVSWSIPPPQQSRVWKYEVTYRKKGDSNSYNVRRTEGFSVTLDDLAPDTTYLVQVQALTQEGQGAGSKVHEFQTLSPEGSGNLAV

This assay addresses T1, Human EphA2 (Ecto) (Human, UniProt P29317 24-537).
T1 construct: extracellular domain
In words: FP competition; competitor Compound 18. The method, then: Peptides without a fluorescent tag were tested in competition with a peptide with a fluorescent tag and a known Kd (Table 2). Peptides were diluted to an appropriate concentration in assay buffer as described in the direct binding assay with a maximum of 5% DMSO, then serially diluted 1 in 2. Five μL of diluted peptide was added to the plate followed by 10 μL of human or mouse EphA2 (Table 1) at a fixed concentration which was dependent on the fluorescent peptide used (Table 2), then 10 μL fluorescent peptide added. Measurements were conducted as for the direct binding assay, however the gain was determined prior to the first measurement.
Regarding Ac-[Sar][Sar]A[dD][Ala(cPr)]TCPWGPFWCPVNRPGC (linker 7-14-21 via TBMB) [Compound 161], the Ki worked out at 4.44 nM.
Consider ADVHCPWGPFWCPV[dA]RPGCA (linker 5-12-19 via TBMB) [Compound 155], for which the Ki is 2 nM.
As for [Sar][Sar]ACP[1Nal]GPFWCP[Tle]N[hArg]PGC (linker 4-11-18 via TBMB) [Compound 130], the figure is 0.29 nM; as for Ac-[Sar][Sar]A[dD]VTCPWG[Aib]F[1Nal]CPVNR[Aib]GC (linker 7-14-21 via TBMB) [Compound 179], 2.94 nM.
Then Ac-[Sar][Sar]AHDVPCPWGPFWCPVNRPGC (linker 8-15-22 via TBMB) [Compound 193], with 0.59 nM.
As for [Sar][Sar]AHDAPCPWGPFWCPVNRPGC (linker 8-15-22 via TBMB) [Compound 214], the figure is 22.5 nM.
Take [Sar][Sar]AHAVPCPWGPFWCPVNRPGC (linker 8-15-22 via TBMB) [Compound 205]: the Ki turned out to be 1.8 nM.
As for Ac-[Sar][Sar]AADVPCPWGPFWCPVNRPGC (linker 8-15-22 via TBMB) [Compound 195], the figure is 1.01 nM; as for [Sar][Sar]AHEVPCPWGPFWCPVNRPGC (linker 8-15-22 via TBMB) [Compound 207], 1.3 nM; as for [Sar][Sar]AHDVACPWGPFWCPVNRPGC (linker 8-15-22 via TBMB) [Compound 218], 1.27 nM.
Then [dD]VTCPWGPFWCPVNRPGC (linker 4-11-18 via TBMB) [Compound 185], with 2.17 nM; and ADVHCPWGPFWCPVN[dA]PGCA (linker 5-12-19 via TBMB) [Compound 156], with 14.9 nM; and Ac-[Sar][Sar][dA]HDVPCPWGPFWCPVNRPGC (linker 8-15-22 via TBMB) [Compound 194], with 1.2 nM.
On to Ac-[Sar][Sar]A[dD]VTCPWGPFWCPVNRP[dD]C (linker 7-14-21 via TBMB) [Compound 175], for which the Ki is 1.78 nM.
As for Ac-[Sar][Sar]A[dD]VTCPWGP[hArg]WCPVNRPGC (linker 7-14-21 via TBMB) [Compound 171], the figure is 4.88 nM.
As for [Sar][Sar]ACPWGPFWCPVNRP[dA]C (linker 4-11-18 via TBMB) [Compound 112], the figure is 89 nM.
Then AHDVPCP[1Nal]GPFWCP[Tle]NRPGC (linker 6-13-20 via TBMB) [Compound 190], with 0.7 nM; and Ac-[Sar][Sar]A[dD]VTCPWGPFWCPVNR[Aib][dD]C (linker 7-14-21 via TBMB) [Compound 177], with 4.43 nM; and Ac-[Sar][Sar]A[dD]VTCPWG[Aib]FWCP[Tle]NR[Aib]GC (linker 7-14-21 via TBMB) [Compound 180], with 3.83 nM.
Consider AHDVPCPWGPF[1Nal]CPVNRPGC (linker 6-13-20 via TBMB) [Compound 189], for which the Ki came to 1.3 nM.
As for AHDVPCP[1Nal]GPFWCPVNRPGCA (linker 6-13-20 via TBMB) [Compound 187], the figure is 0.32 nM; as for Ac-[Sar][Sar]A[dD]VTCP[1Nal]G[Aib]F[1Nal]CPVNR[Aib]GC (linker 7-14-21 via TBMB) [Compound 181], 1.37 nM; as for [Sar][Sar]ACP[1Nal]GPFWCP[Tle]N[hArg][Aib]GC (linker 4-11-18 via TBMB) [Compound 138], 5.1 nM.
Then ADVHCPWAPFWCPVNRPGCA (linker 5-12-19 via TBMB) [Compound 151], with 394 nM.
As for ADVHCPWGAFWCPVNRPGCA (linker 5-12-19 via TBMB) [Compound 152], the Ki worked out at 1.8 nM.
Then ADVHCP[Dip]GPFWCPVNRPGCA (linker 5-12-19 via TBMB) [Compound 149], with 52.8 nM; and AHDVPCP[1Nal]G[Aib]FWCP[Tle]NR[Aib]GC (linker 6-13-20 via TBMB) [Compound 192], with 1.75 nM; and ADVHCPWG[Aib]FWCPVNRPGCA (linker 5-12-19 via TBMB) [Compound 153], with 0.51 nM.
Turning to Ac-[Sar][Sar]AD[Tle]TCPWGPFWCPVNRPGC (linker 7-14-21 via TBMB) [Compound 164], the Ki is 2.25 nM.
Regarding ADVHCP[1Nal]GPFWCPVNRPGCA (linker 5-12-19 via TBMB) [Compound 150], the Ki was 0.12 nM.
As for Ac-[Sar][Sar]A[dD]VTCP[1Nal]G[Aib]FWCPVNR[Aib]GC (linker 7-14-21 via TBMB) [Compound 178], the figure is 2.4 nM; as for [Sar][Sar]A[dH]DVPCPWGPFWCPVNRPGC (linker 8-15-22 via TBMB) [Compound 197], 1.2 nM; as for Ac-[Sar][Sar]A[dD]VTCPWGPFWCPVN[hArg]P[dD]C (linker 7-14-21 via TBMB) [Compound 176], 4.89 nM.
Then Ac-[Sar][Sar]A[dD][Gly(cPr)]TCPWGPFWCPVNRPGC (linker 7-14-21 via TBMB) [Compound 162], with 2.55 nM; and Ac-[Sar][Sar]A[dD]VTCP[1Nal]GPFWCPVNRPGC (linker 7-14-21 via TBMB) [Compound 170], with 0.6 nM.
As for Ac-[Sar][Sar]A[dD]VTCPWGPNWCPVNRPGC (linker 7-14-21 via TBMB) [Compound 172], the figure is 3.96 nM; as for Ac-[Sar][Sar]A[dD]VTCPWGPFWCPLNRPGC (linker 7-14-21 via TBMB) [Compound 174], 9.1 nM; as for Ac-[Sar][Sar]A[dD]VTCPWGPAWCPVNRPGC (linker 7-14-21 via TBMB) [Compound 173], 6.69 nM.
On to Ac-[Sar][Sar]A[dH]DVPCPWGPFWCPVNRPGC (linker 8-15-22 via TBMB) [Compound 196], for which the inhibition constant (Ki) stood at 0.95 nM.
As for Ac-[Sar][Sar]A[dD]DVTCPWGPFWCPVNRPGC (linker 8-15-22 via TBMB) [Compound 281], the figure is 5.78 nM; as for AHDVPCP[1Nal]G[Aib]FWCP[Tle]N[hArg]PGC (linker 6-13-20 via TBMB) [Compound 191], 3.1 nM.
As for Ac-[Sar][Sar]A[dD][Cba]TCPWGPFWCPVNRPGC (linker 7-14-21 via TBMB) [Compound 160], the figure is 2.6 nM.
As for Ac-[Sar][Sar]A[dD][dD]TCPWGPFWCPVNRPGC (linker 7-14-21 via TBMB) [Compound 159], the figure is 2.85 nM; as for Ac-[Sar][Sar]ADVHCPWGPFWCPVNRPGC (linker 7-14-21 via TBMB) [Compound 148], 1.2 nM.
Take Ac-[Sar][Sar]ADVTCPWGPFWCPVNRPGC (linker 7-14-21 via TBMB) [Compound 157]: the Ki turned out to be 0.91 nM.
Then AHDVPCP[1Nal]GPFWCPVNRPGC (linker 6-13-20 via TBMB) [Compound 188], with 1.45 nM.
